# IntAct's records for PubMed 16456538
# B1: Uncharacterized protein TRE1 (Saccharomyces cerevisiae), Q08919 (parent)
# chain: MVNTRGYTTLPNVEEPANNSQDELNSQDFEQAIGMPSEPPVYVEEMGMEEPQAPEAFSEKVQRFRMCFENNVVIPVKKNVVDPLAQMISLASEKFDLFLSKIGNVMVMRRIFYIMMMSIIAALIIASDRLPNGKARGSNGSFSDHDLLLQYARKSIDLSKIERDLEYISSMPHMSGTSGDAAIRHYIKESFDKNGIRLAGEEEFMAYSNYPGNVSLRVYSKDDTEGFDIPLNEENFNPMSHNGQLNNIPVIYANKASLDDMASMQDQGLLNGDFILLVHYGDYVFQQMLTAQEYGAKAIIFISEPYQDNKDVIQMKSVALPQYGTGDALTPEWEGSIRDPIDATEAKCLPKIPSIPISANQGDKILAILSDTGVKFSNNLFSGSLNDCRLDLLVQTAIRERHPVHDIVGKIEGSEQAGRAIVIAAPRNSASYGTMYPSFGTVVLLSLIQLYQEMVYKFDWKPLRNIYFISFGGSEFNEAGATELMEKRTEALKSEIYTIIDVGQIGIWDDSNNLEIQCHPLLVDLFQKNMTSRKFNVKVDNVHQFGDWTPYLAQGIPVAIISSPGVMNREHPIYTVEDKFDFIKDKLRDKKKGEVLSEIMLYLVEKSLELIDDPFIPFSISNYVDFLSTTLKDLQKECPDTVNFDEVFLGTTLWENTKLQFEKWKSEWTELMYGAGTYIEPTIIAINRWSWNYLLSLIGVTQCLEEGLMDRTFYKNVIFGPKLWVDKGDPLRSWTFPEIRDTIAIKDWSSVQVQANTLGTILQNTARYFLENKNLHGINTNEF
# Variants of: B1
# Settings: with rsp5_yeast RSP5, P39940
# Sequence of rsp5_yeast RSP5, P39940 (P39940 whole entry): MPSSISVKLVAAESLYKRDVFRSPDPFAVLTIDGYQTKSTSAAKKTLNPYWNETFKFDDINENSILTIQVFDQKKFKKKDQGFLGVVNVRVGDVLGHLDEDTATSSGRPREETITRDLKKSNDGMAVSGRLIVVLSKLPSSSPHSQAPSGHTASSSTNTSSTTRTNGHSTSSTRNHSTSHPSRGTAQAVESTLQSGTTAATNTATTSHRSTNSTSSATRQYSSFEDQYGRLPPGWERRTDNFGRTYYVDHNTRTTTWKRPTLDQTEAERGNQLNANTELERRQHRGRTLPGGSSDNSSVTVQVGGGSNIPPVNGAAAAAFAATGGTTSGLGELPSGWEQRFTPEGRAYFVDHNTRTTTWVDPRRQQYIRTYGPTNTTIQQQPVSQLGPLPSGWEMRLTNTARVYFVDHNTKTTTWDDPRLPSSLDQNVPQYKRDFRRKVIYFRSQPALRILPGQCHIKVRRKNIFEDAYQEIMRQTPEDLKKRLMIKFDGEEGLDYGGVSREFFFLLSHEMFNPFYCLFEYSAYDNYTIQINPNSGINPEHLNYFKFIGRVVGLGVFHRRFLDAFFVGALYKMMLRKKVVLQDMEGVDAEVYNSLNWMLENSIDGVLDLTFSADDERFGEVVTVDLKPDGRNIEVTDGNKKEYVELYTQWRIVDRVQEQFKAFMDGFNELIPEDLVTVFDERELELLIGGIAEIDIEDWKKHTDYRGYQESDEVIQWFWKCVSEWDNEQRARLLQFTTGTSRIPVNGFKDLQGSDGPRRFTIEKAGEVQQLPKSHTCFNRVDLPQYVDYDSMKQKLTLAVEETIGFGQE
row,Variant,effect of a mutation on the interaction
1,V41A,disrupting interaction
2,Y42G,disrupting interaction

# Variants of: B1
# Settings: with rsp5_yeast RSP5, P39940
# Remark: another data set of the same source
row,Variant,effect of a mutation on the interaction
1,Y42G,decreasing interaction
